Measurements taken from patent publication US20150218238A1, “TREATING DISEASES BY MODULATING A SPECIFIC ISOFORM OF MKL1” (NOVARTIS FORSCHUNGSSTIFTUNG, ZWEIGNIEDERLASSUNG FRIEDRICH …, priority 2012, published 2015).

System: EcR-293 cells
Experiment: DNA microarray on EcR-293 cells overexpressing MKL1 isoforms
Type: cell-based, human
Conditions: vs empty pcDNA3 vector
Method: DNA microarray EcR-293 cells stably transfected with 1) the empty pcDNA3 vector, 2) 5′UTR-MKL_L, 3) 5′UTR-MKL_S were grown in triplicates. For “untreated” samples, total RNA was extracted from cells in D-MEM/10% FBS. “LPA treated” cells were starved for 16 h in D-MEM/0.3% FBS and subsequently treated with 50 μm LPA for 20 min. RNA was extracted 4 h after treatment. RNA was converted into labeled cRNA and hybridized to Affymetrix Human Gene 1.0 arrays (Affymetrix, Santa Clara, Calif., USA). The procedure for the microarray analysis was as previously described (4). Differences in gene expression were calculated for 2) vs. 1), 3) vs. 1), and 3) vs. 2). • (1) Miralles F et al., Cell, Volume 113, Issue 3, May 2003, 329-342 • (2) Maier S et al., Biochimica et Biophysica Acta (BBA)—Molecular Cell Research, Volume 1783, Issue 6, June 2008, 1150-1162 • (3) Martina et al., The FASEB Journal, Volume 24, Issue 3, March 2010, 778-787 • (4) Asparuhova et al., The FASEB Journal, Volume 25, Issue 10, October 2011, 3477-3488

B1: MKL_L: published long isoform of human MKL1 (SEQ ID NO:3), stably overexpressed in EcR-293 cells from construct 5′UTR-MKL_L (protein, listed as Homo sapiens)
chain: LPPSVIAVNGMDGGGAGENDDEPVLVSLSAAPSPQSEAVANELQELSLQPELTLGLHPGRNPNLPPLSERKNVLQLKLQQRRTREELVSQGIMPPLKSPAAFHEQRRSLERARTEDYLKRKIRSRPERSELVRMHILEETSAEPSLQAKQLKLKRARLADDLNEKIAQRPGPMELVEKNILPVESSLKEAIIVGQVNYPKVADSSSFDEDSSDALSPEQPASHESQGSVPSPLEARVSEPLLSATSASPTQVVSQLPMGRDSREMLFLAEQPPLPPPPLLPPSLTNGTTIPTAKSTPTLIKQSQPKSASEKSQRSKKAKELKPKVKKLKYHQYIPPDQKQDRGAPPMDSSYAKILQQQQLFLQLQILNQQQQQHHNYQAILPAPPKSAGEALGSSGTPPVRSLSTTNSSSSSGAPGPCGLARQNSTSLTGKPGALPANLDDMKVAELKQELKLRSLPVSGTKTELIERLRAYQDQISPVPGAPKAPAATSILHKAGEVVVAFPAARLSTGPALVAAGLAPAEVVVATVASSGVVKFGSTGSTPPVSPTPSERSLLSTGDENSTPGDTFGEMVTSPLTQLTLQASPLQILVKEEGPRAGSCCLSPGGRAELEGRDKDQMLQEKDKQIEALTRMLRQKQQLVERLKLQLEQEKRAQQPAPAPAPLGTPVKQENSFSSCQLSQQPLGPAHPFNPSLAAPATNHIDPCAVAPGPPSVVVKQEALQPEPEPVPAPQLLLGPQGPSLIKGVAPPTLITDSTGTHLVLTVTNKNADSPGLSSGSPQQPSSQPGSPAPAPSAQMDLEHPLQPLFGTPTSLLKKEPPGYEEAMSQQPKQQENGSSSQQMDDLFDILIQSGEISADFKEPPSLPGKEKPSPKTVCGSPLAAQPSPSAELPQAAPPPPGSPSLPGRLEDFLESSTGLPLLTSGHDGPEPLSLIDDLHSQMLSSTAILDHPPSPMDTSELHFVPEPSSTMGLDLADGHLDSMDWLELSSGGPVLSLAPLSTTAPSLFSTDFLDGHDLQLHWDSCL
- ACTA2 fold change vs. control (4 h after LPA treatment): +1.86 (7.22E−05) fold
- ADAM21 fold change vs. control (4 h after LPA treatment): −1.36 (8.44E−04) fold
- AMBN fold change vs. control (4 h after LPA treatment): +3.09 (3.65E−06) fold
- CNN2 fold change vs. control (4 h after LPA treatment): <1.20 fold
- DSEL fold change vs. control (4 h after LPA treatment): +1.56 (1.45E−04) fold
- ESRRG fold change vs. control (4 h after LPA treatment): +1.71 (2.20E−07) fold
- MKL1 (total) fold change vs. control (4 h after LPA treatment): +4.61 (4.29E−09) fold
- MMP16 fold change vs. control (4 h after LPA treatment): +2.30 (4.46E−05) fold
- NAP1L3 fold change vs. control (4 h after LPA treatment): +1.86 (1.01E−04) fold
- OSTN fold change vs. control (4 h after LPA treatment): <1.20 fold
- PDGFD fold change vs. control (4 h after LPA treatment): +1.50 (2.62E−05) fold
- ROCK1P1 fold change vs. control (4 h after LPA treatment): <1.20 fold
- RORB fold change vs. control (4 h after LPA treatment): +1.53 (5.71E−05) fold
- SLC8A1 fold change vs. control (4 h after LPA treatment): +2.18 (6.58E−07) fold
- SPOCK3 fold change vs. control (4 h after LPA treatment): +2.31 (1.61E−06) fold
- ACTA2 fold change vs. control (untreated cells): +2.62 (5.99E−08) fold
- ADAM21 fold change vs. control (untreated cells): −1.27 (1.586−02) fold
- AMBN fold change vs. control (untreated cells): −1.89 (2.18E−04) fold
- CNN2 fold change vs. control (untreated cells): +1.65 (2.35E−06) fold
- DSEL fold change vs. control (untreated cells): +1.61 (4.36E−04) fold
- ESRRG fold change vs. control (untreated cells): +2.14 (6.11E−08) fold
- MKL1 (total) fold change vs. control (untreated cells): +5.68 (1.23E−12) fold
- MMP16 fold change vs. control (untreated cells): +1.47 (6.97E−04) fold
- NAP1L3 fold change vs. control (untreated cells): +1.54 (7.53E−04) fold
- OSTN fold change vs. control (untreated cells): −2.38 (2.56E−05) fold
- PDGFD fold change vs. control (untreated cells): +1.93 (7.54E−05) fold
- ROCK1P1 fold change vs. control (untreated cells): <1.20 fold
- RORB fold change vs. control (untreated cells): +2.27 (5.80E−08) fold
- SLC8A1 fold change vs. control (untreated cells): +1.89 (1.37E−07) fold
- SPOCK3 fold change vs. control (untreated cells): +1.63 (7.80E−05) fold
